This note sets out measurements from patent US20250074980A1 (BRIGHAM AND WOMEN S HOSPITAL, published 2025).

Changes are numbered by the printed parent chain. Names and notes keep the numbering of the source.

For one assay, the target named is T1, GST-CEACAM1 (human, UniProt P13688 35-141, limits assumed).
T1 construct: also called human CEACAM1-GST protein
T1 sequence: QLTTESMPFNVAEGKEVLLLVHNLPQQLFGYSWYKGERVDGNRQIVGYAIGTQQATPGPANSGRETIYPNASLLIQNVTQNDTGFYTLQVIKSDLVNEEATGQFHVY
The assay is described as follows: scFv binding ELISA on GST-CEACAM1 coated at 1.0 µg/ml, anti-HIS6-HRP and TMB. As for the experimental part:
The binding of affinity matured purified scFv to human CEACAM1 was analyzed using GST-CEACAM1. A Nunc Immuno MaxiSorp 96 well flat bottom microtitre plate was pre-coated with 1.0 μg/ml GST-CEACAM1 overnight at 4° C. The following day a two-fold dilution series of VH1/Vκ8 S29A parent scFv or test scFv (50 μg/ml to 0.8 μg/ml) in PBSB was incubated for 2 hours at RT on pre-coated ELISA plates. The binding of scFv was detected with an anti-HIS6-HRP antibody and TMB substrate. The reaction was stopped with 3 M HCl, absorbance read at 450 nm on a Dynex Technologies MRX TC II plate reader and the binding curves plotted. Parent scFv (VH1/Vκ8 S29A scFv) was included on each ELISA plate as a reference. An irrelevant scFv was included on at least one plate as a negative control. It was observed that a number of scFvs had improved binding to CEACAM1 compared to the parental VH1/Vκ8 S29A scFv. […] All 34 scFv variants were reformatted to whole IgG to provide greater accuracy with regard to purity and quantitation. The reformatting further allowed for an analysis of the avidity component of antibody binding, which is influenced by the bivalent nature of IgGs. As used herein, “avidity” is the measure of the strength of binding between an antigen-binding molecule (such as an antibody or antibody fragment thereof described herein) and the pertinent antigen.
(ELISA stands for enzyme-linked immunosorbent assay.)

The target of assay [1] is T2, His-tagged CEACAM1 (human, UniProt P13688 35-428).
T2 construct: 45 kDa SPR analyte; also called CEACAM1-HIS; CEACAM1 analyte
T2 sequence: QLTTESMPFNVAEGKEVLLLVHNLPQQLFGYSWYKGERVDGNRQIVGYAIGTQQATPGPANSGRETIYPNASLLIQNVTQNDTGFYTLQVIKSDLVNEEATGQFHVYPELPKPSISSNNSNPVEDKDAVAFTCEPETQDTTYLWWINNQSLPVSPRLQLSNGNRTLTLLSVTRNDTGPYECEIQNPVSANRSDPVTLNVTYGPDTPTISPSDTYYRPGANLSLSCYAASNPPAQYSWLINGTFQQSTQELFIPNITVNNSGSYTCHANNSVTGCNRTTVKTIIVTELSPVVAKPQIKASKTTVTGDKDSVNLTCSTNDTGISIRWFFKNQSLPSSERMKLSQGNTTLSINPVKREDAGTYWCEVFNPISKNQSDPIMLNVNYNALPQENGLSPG
Put plainly: SPR single-cycle, supernatant IgG captured. Summed up: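 IgG came from supernatants of HEK EBNA cells transiently transfected by PEI in 6-well plates and harvested 5-7 days later. Supernatants were quantified by ELISA and filtered. Single-cycle surface plasmon resonance was run on a Biacore T200 at 25° C in HBS-P+ (pH 7.4), with IgG captured on Protein A and His-tagged CEACAM1 as analyte. Kon, koff and Kd were fitted, and relative KD was calculated against the parent antibody assayed in the same experiment.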

Assay [2] addresses T2, His-tagged CEACAM1. Put plainly: SPR single-cycle, purified IgG captured. An outline of the steps: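 Purified IgG was captured on a Series S Protein A chip in a Biacore T200 at 25° C in HBS-P+ (pH 7.4), with His-tagged CEACAM1 as the analyte in single-cycle kinetics surface plasmon resonance. Kon, koff and Kd were fitted from signals corrected for the reference channel and blank runs, and relative KD was calculated against the parent antibody tested alongside.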

Assay [3] deals with T3, CEACAM3 on transfected HeLa cells (human, UniProt P40198 35-252).
T3 construct: whole, on cells; also called HeLa-CEACAM3; HeLa C3
T3 sequence (looked up): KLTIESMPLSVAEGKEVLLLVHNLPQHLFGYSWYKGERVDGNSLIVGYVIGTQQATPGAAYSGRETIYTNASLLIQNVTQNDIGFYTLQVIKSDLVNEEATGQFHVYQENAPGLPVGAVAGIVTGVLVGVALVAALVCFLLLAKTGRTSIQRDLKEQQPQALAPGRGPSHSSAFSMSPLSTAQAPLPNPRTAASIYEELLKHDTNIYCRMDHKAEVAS
Put plainly: flow cytometry, HeLa-CEACAM3 transfectants, % staining, stacked bars. From the text:
(§1) FIG. 11 illustrates the binding selectivity of different affinity-matured CEACAM1 antibodies. […] HELA cells were transfected with vector alone (HeLa-Neo) or vectors expressing CEACAM1, CEACAM3, CEACAM5, or CEACAM6, respectively, and stained with the indicated antibodies. […] MOPC=mouse IgG1 control antibody. Mouse antibodies as positive control for transfected CEACAM isoforms: Col-1=CEACAM3 and CEACAM5 antibody. 9A6=CEACAM6 antibody. T84.1=CEACAM cross-reactive antibody and T84.66=CEACAM5 antibody. Only 2nd FITC=No primary antibody, only secondary FITC conjugated antibody. […] Data for affinity-matured antibodies 9B3_8H3/Vκ8 S29A, 8H3_9B3/CP08_E05, and 8H3_9C2/CPO08_F05, as well as data for CEACAM8 antibody 80H3 were omitted from the FIG. due to an unusually high background signal.
On the technique in general: A flow cytometer gives signals particle by particle.

In assay [4] the target is T4, CEACAM5 on transfected HeLa cells (human, UniProt P06731 35-685).
T4 construct: whole, on cells; also called HeLa-CEACAM5; HeLa C5
T4 sequence (looked up): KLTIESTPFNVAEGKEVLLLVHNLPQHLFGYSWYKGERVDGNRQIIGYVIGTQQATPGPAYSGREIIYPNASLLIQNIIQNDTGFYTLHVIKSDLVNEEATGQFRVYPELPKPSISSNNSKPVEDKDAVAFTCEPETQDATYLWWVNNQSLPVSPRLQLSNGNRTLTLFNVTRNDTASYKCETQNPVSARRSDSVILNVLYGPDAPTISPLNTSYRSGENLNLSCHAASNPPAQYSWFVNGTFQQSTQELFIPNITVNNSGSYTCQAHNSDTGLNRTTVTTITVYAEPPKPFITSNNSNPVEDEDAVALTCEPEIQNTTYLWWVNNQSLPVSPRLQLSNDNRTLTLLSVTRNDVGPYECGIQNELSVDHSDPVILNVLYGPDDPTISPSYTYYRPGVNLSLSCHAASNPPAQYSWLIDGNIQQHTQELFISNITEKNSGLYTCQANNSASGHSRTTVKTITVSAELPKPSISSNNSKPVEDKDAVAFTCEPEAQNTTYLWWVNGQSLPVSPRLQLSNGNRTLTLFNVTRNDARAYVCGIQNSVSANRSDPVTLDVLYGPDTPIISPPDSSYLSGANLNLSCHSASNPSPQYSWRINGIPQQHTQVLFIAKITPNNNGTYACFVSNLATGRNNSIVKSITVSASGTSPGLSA
The assay is described as follows: flow cytometry, HeLa-CEACAM5 transfectants, % staining, stacked bars.
Source text: as §1

Assay [5] deals with T5, CEACAM6 on transfected HeLa cells (human, UniProt P40199 35-320).
T5 construct: whole, on cells; also called HeLa-CEACAM6; HeLa C6
T5 sequence (looked up): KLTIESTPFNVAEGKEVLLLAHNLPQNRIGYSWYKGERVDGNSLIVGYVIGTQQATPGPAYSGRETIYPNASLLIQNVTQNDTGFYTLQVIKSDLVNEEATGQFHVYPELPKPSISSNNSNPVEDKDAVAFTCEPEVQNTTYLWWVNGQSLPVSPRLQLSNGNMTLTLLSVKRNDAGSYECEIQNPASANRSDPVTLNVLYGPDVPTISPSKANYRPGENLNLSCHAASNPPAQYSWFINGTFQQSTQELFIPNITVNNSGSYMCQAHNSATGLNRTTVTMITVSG
The assay is described as follows: flow cytometry, HeLa-CEACAM6 transfectants, % staining, stacked bars.
Source text: as §1

In assay [6] the target is T5, CEACAM6 on transfected HeLa cells. Put plainly: flow cytometry, transfected HeLa.
Assay [7] addresses T4, CEACAM5 on transfected HeLa cells. Put plainly: flow cytometry, transfected HeLa.
Assay [8] concerns the target T6, CEACAM1 on transfected HeLa cells (human, UniProt P13688 35-526).
T6 construct: also called HeLa-CEACAM1; HeLa C1
T6 sequence: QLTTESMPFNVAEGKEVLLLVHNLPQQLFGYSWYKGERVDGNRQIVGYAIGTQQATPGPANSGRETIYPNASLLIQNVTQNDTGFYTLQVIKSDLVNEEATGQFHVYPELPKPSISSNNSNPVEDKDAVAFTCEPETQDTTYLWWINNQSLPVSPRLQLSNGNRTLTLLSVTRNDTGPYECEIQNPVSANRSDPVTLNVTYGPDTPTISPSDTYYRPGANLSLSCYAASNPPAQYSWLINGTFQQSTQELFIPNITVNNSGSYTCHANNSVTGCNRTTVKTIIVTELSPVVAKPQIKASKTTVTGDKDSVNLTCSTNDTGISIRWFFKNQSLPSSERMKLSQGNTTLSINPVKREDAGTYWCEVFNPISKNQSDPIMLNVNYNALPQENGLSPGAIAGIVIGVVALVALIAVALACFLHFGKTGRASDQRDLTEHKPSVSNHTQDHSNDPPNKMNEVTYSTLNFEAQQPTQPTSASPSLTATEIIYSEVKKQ
Put plainly: flow cytometry, transfected HeLa.

Assay [9] deals with T2, His-tagged CEACAM1. The assay is described as follows: SPR multi-cycle. Summed up: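 Surface plasmon resonance multi-cycle kinetics on a Biacore T200 at 25° C in HBS-P+ (pH 7.4). Purified antibody at 1 μg/ml was captured on a Series S Protein A chip to ~75 RU, with His-tagged CEACAM1 analyte in 2-fold dilutions from 200 to 3.125 nM or 100 to 1.5625 nM at 80 μl/min. Association was 50 or 150 seconds and dissociation 100 seconds, with glycine-HCl pH 1.5 regeneration. Kon, koff, Kd and relative KD come from these sensorgrams.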

B1: CP08C04 (scFv)
scFv, VH-linker-VL: EVQLLESGGGLVQPGGSLRLSCAASGFTFSSHGMSWVRQAPGKGLEWVATISSGGTYTYYPDSVKGRFTISRDNSKNTLYLQMNSLKAEDTAMYYCARHDFDYDAAWFAYWGQGTLVTVSSGGGGSGGGGSGGGGSEIVLTQSPATLSLSPGERATLSCRANSAVSYMYWYQQKPGQAPRPWIYLTSNRATGVPARFSGSGSGTDYTLTISSLEPEDFAVYYCQQWSSNPPTFGQGTKLEIK
notes: purified scFv form; the IgG form is m90
For orientation: EC50 (read off the curve) means the concentration giving half of the maximal effect. For the molecule B1, the half-maximal effective concentration (EC50 (read off the curve)) with GST-CEACAM1 is roughly 10 µg/mL.

B2: CP09F03 (scFv)
scFv, VH-linker-VL: B1 scFv, VH-linker-VL with S30N, S31N
notes: purified scFv form; the IgG form is m63
With B2, the “EC50 (read off the curve)” value in the assay with GST-CEACAM1 was roughly 10 µg/mL.

B3: CP08H03/CP08E05 (antibody, IgG4, V domains shown)
VH: EVQLLESGGGLVQPGGSLRLSCAASGFIFSSHGMSWVRQAPGKGLEWVATISSGGTYTYYPDSVKGRFTISRDNSKNTLYLQMNSLKAEDTAMYYCARHDFDYFPYWFAHWGQGTLVTVSS
VL: EIVLTQSPATLSLSPGERATLSCRANSAVSYMYWYQQKPGQAPRPWIYLTSNRATGVPARFSGSGSGTDYTLTISSLEPEDFAVYYCQQWTTNPPTFGQGTKLEIK
notes: IgG4 (S241P), kappa
A word on the Kd: it is the free concentration of one partner at which half of the binding sites on the other are occupied at equilibrium, for simple one-to-one binding. A low value points to higher affinity. By koff is commonly meant the rate constant with which the complex falls apart. By kon is commonly meant the rate constant with which the complex forms. High values mean faster complex formation, low ones slower complex formation. Regarding B3, the Kd with His-tagged CEACAM1 [1] came out at 120 nM; with His-tagged CEACAM1 [2], 110 nM. Moreover, the off-rate (koff) with His-tagged CEACAM1 [1] was determined as 0.0085 s⁻¹; with His-tagged CEACAM1 [2], 0.008 s⁻¹. The kon with His-tagged CEACAM1 [1] was determined as 71000 M⁻¹ s⁻¹; with His-tagged CEACAM1 [2] it was 76000 M⁻¹ s⁻¹. The “relative KD to parent” value stood at 4.6 in the assay with His-tagged CEACAM1 [1] and 4.5 in the assay with His-tagged CEACAM1 [2]. Besides, the binding result in assay [3], in assay [4] and in [5] was “no binding” throughout.

B4: VH0/Vκ0 N26Q (antibody, IgG4, name in Kabat numbering, V domains shown)
VH: EVQLVESGGDLVKPGGSLKLACAASGFIFSSHGMSWVRQTPDKRLEWVATISSGGTYTYYPDSVKGRFTISRDNDKNTLYLQMNSLKSEDTAMYYCARHDFDYDAAWFAYWGQGTLVTVSS
VL: QIVLTQSPALMSASPGVKVTMTCSAQSSVSYMYWYRQKPRSSPKPWIYLTSNLASGVPARFSGSGSGTSYSLTISSMEAEDAATYYCQQWSSNPPTFGSGTKLEIK
notes: aglycosylated chimeric, IgG4 (S241P), kappa
On to B4, for which the “relative amount of cells bound” value in [6] was found to be 0.18. In addition, the “relative amount of cells bound” value in [7] came out at 15.5. The “relative amount of cells bound” value in assay [8] stood at 79.9. Besides, in the assay with His-tagged CEACAM1 [9], the affinity, expressed as Kd, was 198 nM; the off-rate constant (koff) came to 0.0299 s⁻¹; the association rate constant (kon) worked out at 151000 M⁻¹ s⁻¹; the “relative KD” value was determined as 1.89.
